Assay in all cases: purified protein
Holding throughout (conditions): co-substrate GTP

Data set [1] deals with CO[C@H]1[C@H](O)[C@H](O)[C@@H](OP(=O)(O)O)O[C@@H]1CO.
Source text: (§1) colorimetric pyrophosphate detection assay on GDP-mannose pyrophosphorylase (GDP-ManPP)
For data set [2], the system named is COC[C@H]1O[C@H](OP(=O)(O)O)[C@@H](O)[C@@H](O)[C@@H]1O.
Source text: as §1
The test system of data set [3] is O=P(O)(O)O[C@H]1O[C@H](CO)[C@@H](O)[C@H](O)[C@@H]1O.
Source text: as §1
Data set [4] relates to CO[C@@H]1[C@H](O)[C@@H](OP(=O)(O)O)O[C@H](CO)[C@H]1O.
Source text: as §1
Data set [5] concerns C[C@H]1O[C@H](OP(=O)(O)O)[C@@H](O)[C@@H](O)[C@@H]1O.
Source text: as §1
In data set [6] the test system is CO[C@@H]1[C@@H](OP(=O)(O)O)O[C@H](CO)[C@@H](O)[C@@H]1O.
Source text: as §1

By Km is commonly meant the substrate concentration at which the rate is half of its maximum. A word on the kcat: it is the maximal rate divided by the concentration of active sites. A word on the kcat/Km: it is the second-order rate constant that governs catalysis at low substrate concentration. For “GDP-mannose pyrophosphorylase (GDP-ManPP) (Salmonella enterica subsp. enterica serovar Typhimurium str. LT2)”, the Michaelis constant (Km) in data set [1] was 3400 ± 870 µM; in data set [2], 120 ± 18 µM; in data set [3] it was 40 ± 6 µM; in data set [4] it was 200 ± 72 µM; in data set [5], 70 ± 13 µM; in data set [6], 4000 ± 1100 µM. The kcat in data set [1] came out at 0.517 ± 0.0783 s⁻¹; in data set [2], 0.45 ± 0.0167 s⁻¹; in data set [3], 6 ± 0.267 s⁻¹; in data set [4], 0.0867 ± 0.0117 s⁻¹; in data set [5], 5 ± 0.217 s⁻¹; in data set [6], 1.17 ± 0.183 s⁻¹. Moreover, the kcat/Km came out at 150 ± 83.3 M⁻¹ s⁻¹ in data set [1]; 3830 ± 1000 M⁻¹ s⁻¹ in data set [2]; 150000 ± 50000 M⁻¹ s⁻¹ in data set [3]; 433 ± 16.7 M⁻¹ s⁻¹ in data set [4]; 66700 ± 16700 M⁻¹ s⁻¹ in data set [5]; 333 ± 167 M⁻¹ s⁻¹ in data set [6].

Values taken from publication PMC3458741, “Studies on the substrate specificity of a GDP-mannose pyrophosphorylase from Salmonella enterica” (Beilstein Journal of Organic Chemistry, 2012).
